# Values quoted from earlier work in publication PMC2783296.
# Biological target: Glu134 (UniProt position 134, VVLAIERYVVV)
# Test: IR
# Conditions: Photoactivated metarhodopsin II (all-trans retinal, unprotonated Schiff base)
substance,measurement,value
Rhodopsin (metarhodopsin II photointermediate) (Bos taurus (inferred; species not stated in the article)),pKa,6.3
